{"source": "patent US20250188188A1", "about": "(DIANTHUS THERAPEUTICS OPCO, published 2025)", "key": {"[1]": {"target": "T1, active human C1s purified from human serum (CompTech, Tyler, TX, catalog number A104) (human, UniProt P09871 16-437; P09871 438-688)", "T1 construct": "Serum-derived material, biotinylated for the ELISA; also called human active C1s; active C1s", "T1 sequence 1": "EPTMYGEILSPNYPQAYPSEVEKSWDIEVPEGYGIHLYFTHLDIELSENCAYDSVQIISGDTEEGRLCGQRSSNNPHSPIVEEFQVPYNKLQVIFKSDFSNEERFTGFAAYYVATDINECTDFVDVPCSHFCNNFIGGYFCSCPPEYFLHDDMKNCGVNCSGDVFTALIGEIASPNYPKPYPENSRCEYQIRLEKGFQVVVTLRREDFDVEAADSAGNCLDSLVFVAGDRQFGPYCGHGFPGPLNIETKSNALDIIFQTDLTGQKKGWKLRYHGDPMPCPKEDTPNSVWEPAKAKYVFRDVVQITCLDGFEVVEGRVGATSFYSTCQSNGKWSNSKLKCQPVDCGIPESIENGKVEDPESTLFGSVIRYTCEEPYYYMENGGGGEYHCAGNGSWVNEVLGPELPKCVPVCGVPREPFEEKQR", "T1 sequence 2": "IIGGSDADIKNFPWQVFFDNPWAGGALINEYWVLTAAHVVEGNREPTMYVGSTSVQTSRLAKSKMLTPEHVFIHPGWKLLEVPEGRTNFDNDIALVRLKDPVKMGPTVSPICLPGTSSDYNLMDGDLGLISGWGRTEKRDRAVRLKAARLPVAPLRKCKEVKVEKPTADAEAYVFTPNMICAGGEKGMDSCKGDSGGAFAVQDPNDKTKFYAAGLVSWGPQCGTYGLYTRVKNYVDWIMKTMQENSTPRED", "assay": "SPR (Biacore 4000), 37 C pH 7.4, antibody captured via goat anti-human antibody, C1s in solution, n=4", "experimental": "(§1) Binding of MAB39 and MAB9 to Human Active C1s at 37° C./pH 7.4 Measured by Surface Plasmon Resonance. Human active C1s purified from serum was procured from Complement Technologies, Tyler, TX (catalog number A104). Studies to evaluate MAB39 and MAB9 binding to human active C1s at 37° C. were performed on a Biacore 4000 and Biacore T100 (Cytiva, Marlborough, MA), respectively. Goat anti-human antibody (ThermoFisher, Waltham, MA, USA, catalog number H10500) was amine-coupled to a C1 sensor chip (Cytiva, Marlborough, MA, USA, catalog number BR100535). MAB39 was diluted to 6.67 nM and MAB9 was diluted to 10 nM in 50 mM HEPES pH 7.4, 150 mM NaCl, 1.3 mM Ca, 0.02% Tween-20, 1 mg/mL BSA (HBS). MAB39 was captured for 60 seconds to produce surface densities of 200 RU and MAB9 was captured for 30 seconds to produce surface densities of 10 to 20 RU. Human active C1s was tested for binding using a 3-fold titration series in HBS with a maximum concentration of 12.3 nM for MAB39 and 16 nM for MAB9. Data were processed by subtracting responses from a reference surface as well as a buffer injection. The processed data were fitted with a 1:1 interaction model including baseline offset and bulk refractive index shifts in the association phase. Surfaces were regenerated with a 12 second injection of 1/100 dilution of H3PO4 for MAB39 and 12 second injection of 1/50 dilution of H3PO4 for MAB9. Replicate experiments were performed (n=2 for MAB9 and n=4 for MAB39).\nComparison of Binding Affinities of MAB39 and MAB9 to Human Active C1s by Surface Plasmon Resonance. The human active C1s association constant (ka), disassociation constant (kd) and affinity (KD) for MAB39 and MAB9 were determined in separate experiments (Table 17). […] Statistical analysis was performed using paired t-test, with p value of 0.6168."}, "[2]": {"target": "T1, active human C1s purified from human …", "assay": "cell-based or functional assay"}, "[3]": {"target": "T1, active human C1s purified from human …", "assay": "SPR (Biacore T100), 37 C pH 7.4, antibody captured via goat anti-human antibody, C1s in solution, n=2", "experimental": "as §1, with “The processed data were fitted with a 1:1 interaction model including baseline offset and bulk refractive index shifts in the association phase. Surfaces were regenerated with a 12 second injection of 1/100 dilution of H3PO4 for MAB39 and 12 second injection of 1/50 dilution of H3PO4 for MAB9. Replicate experiments were performed (n=2 for MAB9 and n=4 for MAB39).” left out\n(§2) Comparison of Binding Affinities of MAB39 and MAB9 to Human Active C1s by Surface Plasmon Resonance. The human active C1s association constant (ka), disassociation constant (kd) and affinity (KD) for MAB39 and MAB9 were determined in separate experiments (Table 17). […]"}, "[4]": {"target": "T1, active human C1s purified from human …", "assay": "SPR (Biacore T100), 37 C pH 7.4, antibody captured via goat anti-human antibody, C1s in solution, n=2; Table 17 experiment, apart from Table 12", "experimental": "as §1, with “The processed data were fitted with a 1:1 interaction model including baseline offset and bulk refractive index shifts in the association phase. Surfaces were regenerated with a 12 second injection of 1/100 dilution of H3PO4 for MAB39 and 12 second injection of 1/50 dilution of H3PO4 for MAB9. Replicate experiments were performed (n=2 for MAB9 and n=4 for MAB39).” left out\nas §2"}, "[5]": {"target": "T1, active human C1s purified from human …", "assay": "cell-based or functional assay", "remark": "listed apart in the source"}, "[6]": {"target": "T1, active human C1s purified from human …", "assay": "cell-based or functional assay", "remark": "listed apart in the source"}, "[7]": {"target": "T1, active human C1s purified from human …", "assay": "cell-based or functional assay", "remark": "listed apart in the source"}, "[8]": {"target": "T1, active human C1s purified from human …", "assay": "SPR, direct comparison"}, "[9]": {"target": "T1, active human C1s purified from human …", "assay": "cell-based or functional assay", "remark": "listed apart in the source"}}}
{"binder": "IgG4-MAB39 (MAB39 in human IgG4 with S228P, L235E and YTE) (antibody, Differs from MAB9 only in the N-terminal VH residue (E instead of Q); also called IgG-MAB39) heavy: EVQLVESGGGLVKPGGSLRLSCAASGFTFSDYYMSWIRQAPGKGLEWVSYISRSGSTKYYADSVKGRFTISRDNAKNSLYLQMNSLRAEDTAVYYCARDENYALDWWGQGTLVTVSSASTKGPSVFPLAPCSRSTSESTAALGCLVKDYFPEPVTVSWNSGALTSGVHTFPAVLQSSGLYSLSSVVTVPSSSLGTKTYTCNVDHKPSNTKVDKRVESKYGPPCPPCPAPEFEGGPSVFLFPPKPKDTLYITREPEVTCVVVDVSQEDPEVQFNWYVDGVEVHNAKTKPREEQFNSTYRVVSVLTVLHQDWLNGKEYKCKVSNKGLPSSIEKTISKAKGQPREPQVYTLPPSQEEMTKNQVSLTCLVKGFYPSDIAVEWESNGQPENNYKTTPPVLDSDGSFFLYSRLTVDKSRWQEGNVFSCSVMHEALHNHYTQKSLSLSLG light: not shown", "values": [{"measurement": "Kd", "setting": "[1]", "value": 0.0105, "unit": "nM"}, {"measurement": "koff", "setting": "[1]", "value": 0.000125, "unit": "s⁻¹"}, {"measurement": "kon", "setting": "[1]", "value": "1.19e+07", "unit": "M⁻¹ s⁻¹"}]}
{"binder": "IgG4-MAB9 (MAB9 in human IgG4 with S228P, L235E and YTE) (antibody, also called MAB9 with constant domain PE and YTE mutations) heavy: QVQLVESGGGLVKPGGSLRLSCAASGFTFSDYYMSWIRQAPGKGLEWVSYISRSGSTKYYADSVKGRFTISRDNAKNSLYLQMNSLRAEDTAVYYCARDENYALDWWGQGTLVTVSSASTKGPSVFPLAPCSRSTSESTAALGCLVKDYFPEPVTVSWNSGALTSGVHTFPAVLQSSGLYSLSSVVTVPSSSLGTKTYTCNVDHKPSNTKVDKRVESKYGPPCPPCPAPEFEGGPSVFLFPPKPKDTLYITREPEVTCVVVDVSQEDPEVQFNWYVDGVEVHNAKTKPREEQFNSTYRVVSVLTVLHQDWLNGKEYKCKVSNKGLPSSIEKTISKAKGQPREPQVYTLPPSQEEMTKNQVSLTCLVKGFYPSDIAVEWESNGQPENNYKTTPPVLDSDGSFFLYSRLTVDKSRWQEGNVFSCSVMHEALHNHYTQKSLSLSLG light: not shown", "values": [{"measurement": "IC50, inhibition of Wieslab complement classical pathway (C5b-9 ELISA), 1% human serum", "setting": "[2]", "value": 0.78, "unit": "nM"}, {"measurement": "koff", "setting": "[3]", "value": 0.00012, "unit": "s⁻¹"}, {"measurement": "kon", "setting": "[3]", "value": "1.69e+07", "unit": "M⁻¹ s⁻¹"}, {"measurement": "Kd", "setting": "[4]", "value": 7.1, "unit": "pM"}, {"measurement": "IC50, inhibition of sensitized hRBC lysis in 25% human serum, Donor 1", "setting": "[5]", "value": 12.9, "unit": "nM"}, {"measurement": "IC50, inhibition of sensitized hRBC lysis in 25% human serum, Donor 2", "setting": "[5]", "value": 22.1, "unit": "nM"}, {"measurement": "IC50, inhibition of sensitized hRBC lysis in 25% human serum, Donor 3", "setting": "[5]", "value": 5.8, "unit": "nM"}, {"measurement": "IC50, inhibition of C3b deposition on sensitized hRBCs in 7.5% human serum (flow cytometry), Donor A", "setting": "[6]", "value": 64.1, "unit": "nM"}, {"measurement": "IC50, inhibition of C3b deposition on sensitized hRBCs in 7.5% human serum (flow cytometry), Donor B (1)", "setting": "[6]", "value": 124, "unit": "nM"}, {"measurement": "IC50, inhibition of C3b deposition on sensitized hRBCs in 7.5% human serum (flow cytometry), Donor B (2)", "setting": "[6]", "value": 202, "unit": "nM"}, {"measurement": "IC50 in the RBC lysis assay (FIG. 4C)", "setting": "[7]", "value": 17.6, "unit": "nM"}, {"measurement": "fold improvement in potency (IC50, RBC lysis assay) against MAB2 (US20220380483A1)", "setting": "[7]", "value": "> 3", "unit": "fold"}, {"measurement": "fold higher affinity than MAB2 (US20220380483A1)", "setting": "[8]", "value": "~10", "unit": "fold"}, {"measurement": "IC50, inhibition of sensitized hRBC lysis in 25% human serum", "setting": "[9]", "value": 17.6, "unit": "nM"}]}
{"binder": "IgG4-MAB4 (MAB4 in human IgG4 with S228P, L235E and YTE) (antibody, V domains shown) VH: QVQLVESGGGLVKPGGSLRLSCAASGFTFSDYYMSWIRQAPGKGLEWVSYISRSGSTKYYADSVKGRFTISRDNAKNSLYLQMNSLRAEDTAVYYCARDESQYALDYWGQGTLVTVSS VL: DIQMTQSPSSLSASVGDRVTITCQASQDISNYLNWYQQKPGKAPKLLIYDASNLETGVPSRFSGSGSGTDFTFTISSLQPEDIATYYCHQYEDYPLTFGGGTKVEIKR", "values": [{"measurement": "IC50, inhibition of Wieslab complement classical pathway (C5b-9 ELISA), 1% human serum", "setting": "[2]", "value": 2.6, "unit": "nM"}, {"measurement": "IC50, inhibition of sensitized hRBC lysis in 25% human serum, Donor 1", "setting": "[5]", "value": 14.9, "unit": "nM"}, {"measurement": "IC50, inhibition of sensitized hRBC lysis in 25% human serum, Donor 2", "setting": "[5]", "value": 17.1, "unit": "nM"}, {"measurement": "IC50, inhibition of sensitized hRBC lysis in 25% human serum, Donor 3", "setting": "[5]", "value": 6.6, "unit": "nM"}, {"measurement": "IC50, inhibition of C3b deposition on sensitized hRBCs in 7.5% human serum (flow cytometry), Donor A", "setting": "[6]", "value": 69.2, "unit": "nM"}, {"measurement": "IC50, inhibition of C3b deposition on sensitized hRBCs in 7.5% human serum (flow cytometry), Donor B (1)", "setting": "[6]", "value": 193, "unit": "nM"}, {"measurement": "IC50, inhibition of C3b deposition on sensitized hRBCs in 7.5% human serum (flow cytometry), Donor B (2)", "setting": "[6]", "value": 262, "unit": "nM"}, {"measurement": "IC50, inhibition of sensitized hRBC lysis in 25% human serum", "setting": "[9]", "value": 17.5, "unit": "nM"}]}
